Results on three molecules are retold here after patent US20240010722A1.

This assay addresses Insulin. The assay is described as follows: polyreactivity ELISA on insulin coat, 100 nM.

Sequence of Insulin (P01308 25-54, chain 1 of 2): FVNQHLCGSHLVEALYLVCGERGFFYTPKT
Sequence of Insulin (P01308 90-110, chain 2 of 2): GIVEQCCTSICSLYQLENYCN

B1: MIAB168 (antibody, V domains shown)
VH: EVQLLESGGGLVQPGGSLRLSCAASGFTFSDFWMHWVRQAPGKGLEWISYISGDSGYTNYADSVKGRFTISRDNSKNTLYLQMNSLRAEDTAVYYCARDRPYYYYMDVWGKGTTVTVSS
VL: DIQMTQSPSSLSASVGDRVTITCRASQSVSRSLLWYQQKPGKAPKLLIYAASSLQSGVPSRFSGSGSGTDFTLTISSLQPEDFATYYCQQYKSYPVTFGQGTKVEIK
In turn, B1 showed an Insulin polyreactivity score of 8.35.

B2: MIAB172 (antibody, V domains shown)
VH: EVQLLESGGGLVQPGGSLRLSCAASGFTFSDFWMHWVRQAPGKGLEWISYISGDSGYTNYADSVKGRFTISRDNSKNTLYLQMNSLRAEDTAVYYCARDRPTYYYMDVWGKGTTVTVSS
VL: DIQMTQSPSSLSASVGDRVTITCRASQSVSRSLAWYQQKPGKAPKLLIYAASSLQSGVPSRFSGSGSGTDFTLTISSLQPEDFATYYCQQYKSYPVTFGQGTKVEIK
In the case of B2, the Insulin polyreactivity score came out at 3.79.

B3: MIAB134 (antibody, V domains shown)
VH: EVQLLESGGGLVQPGGSLRLSCAASGFTFSAFWMHWVRQAPGKGLEWISYISGDSGYTNYADSVKGRFTISRDNSKNTLYLQMNSLRAEDTAVYYCARDRPYYYYMDVWGKGTTVTVSS
VL: DIQMTQSPSSLSASVGDRVTITCRASQSVSRSLAWYQQKPGKAPKLLIYAASSLQSGVPSRFSGSGSGTDFTLTISSLQPEDFATYYCQQYKSYPVTFGQGTKVEIK
B3 came in with an Insulin polyreactivity score of 25.5.
